Experimental data from the supplement of paper PMC11865577.

How the values were obtained:
Test in all cases: pull-down binding Z-score (relative to library population); higher = stronger binding
[1] = tested on: G-clamp-N3 (biotin conjugate); settings: RNA library: Library-1 (pre-miRNA loops + repeats)
Outline: (§1)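 Streptavidin beads bearing 100 pmol of a biotin-conjugated small molecule were incubated for 60 min at 25 °C with 1 μg of heat-folded, Cy5- or Cy3-end-labelled RNA library in phosphate/NaCl/KCl buffer. Hot SDS eluted the RNA that stayed bound after three washes, and this RNA was hybridised for 20 h at 55.5 °C to a DNA barcode microarray. Binding was expressed as a Z-score against the library mean and standard deviation, after subtraction of a beads-only signal and trimmed averaging of barcoded replicate probes.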

[2] = tested on: TO-3-N3 (biotin conjugate); settings: RNA library: Library-2
Outline: as §1

[3] = tested on: TO-3-N3-2 (biotin conjugate); settings: RNA library: Library-2
Outline: as §1

TO-N3 (biotin conjugate) = settings: RNA library: Library-2
Outline: as §1

[4] = tested on: TO-N3-2 (biotin conjugate); settings: RNA library: Library-2
Outline: as §1

Row | Sequence | pull-down binding Z-score [1] | pull-down binding Z-score [2] | pull-down binding Z-score [3] | pull-down binding Z-score (TO-N3 (biotin conjugate)) | pull-down binding Z-score [4]
1 | GAUAUGCCAUUAUGUGGGUCAUGAGGUGGUGA [hsa-mir-6864] | 0.225 | 0.197 | 0.416 | 0.738 | 1.54
2 | GAUCCAGCCCAGGCUGGUUCCGCUGAC [hsa-mir-4522] | -0.211 | 1.15 | 0.351 | 1.23 | 1.51
3 | GAUCCGGGAACCCACAGCCCCGUUC [hsa-mir-6783] | 0.0468 | 0.496 | 0.149 | 0.886 | 1.08
4 | GAUCCUUUGUUCUGGAUC [hsa-mir-7856] | 0.436 | 0.118 | -0.283 | -0.266 | -0.63
5 | GAUGAAGAUUAAUCCCUAAUCCCCAACA [hsa-mir-6757] | -1.77 | -0.283 | -0.0684 | 0.0739 | 0.739
6 | GAUGCUGUAUAUCUGAAAGGUAC [hsa-mir-101-2] | -0.649 | -0.357 | -0.144 | -0.126 | 0.383
7 | GAUGCUGUCUAUUCUAAAGGUAC [hsa-mir-101-1] | -0.819 | -0.772 | -0.32 | -0.577 | 0.0666
8 | GAUGGAGGAAUCACAUGAAUUCAUC [hsa-mir-2115] | 0.704 | -0.415 | -0.362 | -0.627 | -0.351
9 | GAUGGAUUCUUAUGCUCCAUC [hsa-mir-136] | 0.328 | -0.326 | -0.443 | -0.631 | -0.9
10 | GAUGGGAUUAGAAACCAUAUGUCUCAUC [hsa-mir-3617] | 0.264 | 0.0209 | -0.165 | -0.25 | -0.438
11 | GAUGUAUCCAAGUACCCUGUGUUAUUUGGCAAUAAAUACAUC [hsa-mir-1298] | -1.2 | -0.204 | -0.361 | -1.27 | -0.35
12 | GAUGUUUCUGCCAGUUUAGCGUC [hsa-mir-505] | -0.68 | 0.0284 | -0.0968 | 0.0886 | 0.324
13 | GAUUAUUGUAAGCAGGAUCCAUUCAAUAAUC [hsa-mir-5188] | -0.228 | -0.19 | -0.383 | -0.366 | -0.703
14 | GAUUCGCUUUACUUAUGACGAAUC [hsa-mir-382] | -0.449 | -0.268 | -0.107 | -0.424 | -0.716
15 | GAUUCUGAUUCAGGGACCAAGAUUC [hsa-mir-544a] | 0.649 | 0.724 | 0.354 | 1.04 | 0.414
16 | GAUUCUUGAGGCUUGGAAGAGUAAGGAUC [hsa-mir-6866] | -0.0295 | -0.0976 | 0.281 | 0.34 | 1.07

Row | Sequence | pull-down binding Z-score [1] | pull-down binding Z-score [2] | pull-down binding Z-score [3] | pull-down binding Z-score (TO-N3 (biotin conjugate)) | pull-down binding Z-score [4]
17 | GAUUGAAGUUGAAUAGUGC [hsa-mir-3161] | 0.429 | -0.231 | 0.274 | -0.125 | 0.0514
18 | GAUUGCUAAUAGUACCAAUC [hsa-mir-34c] | -0.0934 | 0.967 | -0.216 | 0.79 | -0.636
19 | GAUUGGUCUGUGGUCCUCUC [hsa-mir-3615] | 0.109 | -0.569 | -0.217 | -0.565 | 0.498
20 | GAUUGGUUAGCCUAAGACUUGUUCUGAUCCAAUC [hsa-mir-5701-1_5701-2_5701-3] | -0.75 | 0.546 | 0.14 | 0.513 | 0.061
21 | GAUUUCUAUGAGAACAUC [hsa-mir-3675] | -0.499 | -0.704 | -0.57 | -1.02 | -0.95
22 | GAUUUUUUAGAUUCUAAAGAAAC [hsa-mir-1255a] | -1.12 | -0.837 | -0.365 | -1.02 | -1.27
23 | GCAAGGCUGUAGUGUGCACAGCCUUGA [hsa-mir-4452] | -0.383 | 0.945 | 0.127 | 0.936 | 0.583
24 | GCAAGGUUGUUGGUGAUAUGGCUUCCUCUC [hsa-mir-4685] | 0.872 | -0.179 | 0.0915 | 0.0508 | 0.538
25 | GCAAUCAGGACUGGGUCAUUC [hsa-mir-6873] | -0.628 | 0.38 | 0.166 | 0.572 | 0.291
26 | GCACCUGUUUGUGAC [hsa-mir-4718] | -1.21 | -0.491 | -0.276 | -0.457 | -0.201
27 | GCACUCUGUAGUUUGGGUACACAGUGC [hsa-mir-5011] | 1.49 | -0.741 | -0.259 | -0.77 | -0.478
28 | GCAGAAAUCACUCCAGGAGCAACUGA [hsa-mir-936] | -0.3 | -0.365 | 0.0585 | 0.625 | 0.712
29 | GCAGAGAAGACAGUGAGCUUGCCAGUUCUGGUUUCCAACACUUCCUUUCCUGCG [hsa-mir-3911] | -1.12 | 0.56 | 0.236 | 0.975 | 1.3
30 | GCAGAGCAGGACGCCGCUGCUGC [hsa-mir-8072] | -0.0779 | 0.701 | 0.0817 | 0.817 | 1.65
31 | GCAGAUAGUGGUCCUCUCCGUGCUACCGC [hsa-mir-106b] | -0.198 | -0.0735 | -0.0832 | 0.316 | 1.16
32 | GCAGAUUCUCUCUCUC [hsa-mir-4279] | -1.39 | 0.105 | -0.0368 | 0.189 | 0.316
